{"source": "patent US20160145654", "proteins": {"B1": {"name": "bovine enterokinase (protein)", "chain": "IVGGSDSREGAWPWVVALYFDDQQVCGASLVSRDWLVSAAHCVYGRNMEPSKWKAVLGLHMASNLTSPQIETRLIDQIVINPHYNKRRKNNDIAMMHLEMKVNYTDYIQPICLPEENQVFPPGRICSIAGWGALIYQGSTADVLQEADVPLLSNEKCQQQMPEYNITENMVCAGYEAGGVDSCQGDSGGPLMCQENNRWLLAGVTSFGYQCALPNRPGVYARVPRFTEWIQSFLH"}}, "biological_target": "IL-2-phaP fusion polypeptide on the surface of polymer particles (PHA granules), P04351", "sequence (P04351 whole entry, looked up, the tested form may be a part)": "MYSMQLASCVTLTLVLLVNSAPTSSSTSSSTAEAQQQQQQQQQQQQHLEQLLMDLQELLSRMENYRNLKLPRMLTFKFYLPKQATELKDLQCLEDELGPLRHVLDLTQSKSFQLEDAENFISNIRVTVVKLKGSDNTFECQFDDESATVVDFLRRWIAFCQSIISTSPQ"}
{"protein": "B1", "values": [{"measurement": "fluorescence of IL-2-phaP particles stained with anti-IL-2-PE after 1 hr incubation with enterokinase (FACS)", "result": "a smaller shift in fluorescence intensity indicates that a proportion of IL-2 has been cleaved from the particles"}, {"measurement": "fluorescence of IL-2-phaP particles stained with anti-IL-2-PE after 16 hours incubation with enterokinase (FACS)", "result": "no IL-2 is detectable on the surface of the polymer particles, indicating the IL-2 has been cleaved from the polymer particles"}]}
